No end group written: not given here.

Sequences and labels used below:
T1: extracellular domain (ECD) of FGFR1 fused to the Fc domain of human IgG1 (UniProt P11362 22-376, HiLyte488 dye (labelled form, used for the membrane overlay of FGFs and the PepSpot assay))
T1 construct: FGFR1 (fibroblast growth factor receptor 1), extracellular domain; Unlabelled in the pull-down (held on Protein A resin) and in SPR (amine-coupled); also called FGFR1-Fc; source: recombinant, produced as described previously (Sokolowska-Wedzina et al., 2014)
T1 sequence (looked up): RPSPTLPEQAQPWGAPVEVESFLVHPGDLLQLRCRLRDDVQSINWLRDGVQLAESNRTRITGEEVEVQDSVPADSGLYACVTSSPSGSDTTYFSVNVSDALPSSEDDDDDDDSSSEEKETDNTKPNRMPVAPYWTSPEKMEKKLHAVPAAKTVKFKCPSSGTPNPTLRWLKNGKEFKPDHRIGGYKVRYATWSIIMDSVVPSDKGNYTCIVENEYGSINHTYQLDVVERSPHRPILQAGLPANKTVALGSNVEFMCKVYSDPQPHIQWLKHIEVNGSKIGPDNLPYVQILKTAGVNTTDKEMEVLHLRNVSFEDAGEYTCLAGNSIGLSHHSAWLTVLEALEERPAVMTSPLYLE

B1: PepSpot peptide no. 21 of FGF4 (peptide)
peptide: RVSPTMKVTHFLPRL
modifications: also: covalently bound to cellulose-β-alanine membrane
notes: also called peptide 21; source: synthetic peptide on cellulose membrane (PepSpot, JPT, Berlin)
B2: PepSpot peptide no. 19 of FGF4 (peptide)
peptide: KYPGMFIALSKNGKT
modifications: also: covalently bound to cellulose-β-alanine membrane
notes: also called peptide 19; source: synthetic peptide on cellulose membrane (PepSpot, JPT, Berlin)
B3: PepSpot peptide no. 15 of FGF4 (peptide)
peptide: SRFFVAMSSKGKLYG
modifications: also: covalently bound to cellulose-β-alanine membrane
notes: also called peptide 15; source: synthetic peptide on cellulose membrane (PepSpot, JPT, Berlin)
B4: PepSpot peptide no. 20 of FGF4 (peptide)
peptide: KNGKTKKGNRVSPTM
modifications: also: covalently bound to cellulose-β-alanine membrane
notes: source: synthetic peptide on cellulose membrane (PepSpot, JPT, Berlin)
B5: PepSpot peptide no. 10 of FGF4 (peptide)
peptide: LRRLYCNVGIGFHLQ
modifications: also: covalently bound to cellulose-β-alanine membrane
notes: also called peptide F4_3; 4_3; source: synthetic peptide on cellulose membrane (PepSpot, JPT, Berlin)
B6: chymotryptic peptide of FGF4, region 179–206 (peptide)
peptide: IALSKNGKTKKGNRVSPTMKVTHFLPRL
notes: FGF4 residues 179-206; also called peptide F4_1; 4_1; source: digest of recombinant FGF4 with immobilized bovine chymotrypsin
B7: chymotryptic peptide of FGF4, region 136–150 (peptide)
peptide: FVAMSSKGKLYGSPF
notes: FGF4 residues 136-150; also called peptide F4_2; 4_2; source: digest of recombinant FGF4 with immobilized bovine chymotrypsin
B8: peptibodyF4_1 (Fc fusion)
chain: GIALSKNGKTKKGNRVSPTMKVTHFLPRL
notes: additional glycine residue as a spacer between the Fc domain and the targeting peptide; peptide F4_1, FGF4 residues 179-206; Peptide fused at the C-terminus of the Fc domain of human IgG1 (vector pLEV113); Labelled with DyLite650 for flow cytometry; not shown: Fc (human IgG1), N-terminal, kept
B9: peptibodyF4_3 (Fc fusion)
chain: GLRRLYCNVGIGFHLQ
notes: additional glycine residue as a spacer between the Fc domain and the targeting peptide; peptide F4_3, FGF4 residues 83-97; Peptide fused at the C-terminus of the Fc domain of human IgG1 (vector pLEV113); not shown: Fc (human IgG1), N-terminal, kept
B10: FGF4 (ligand, UniProt P08620 31-206, looked up)
chain: APTAPNGTLEAELERRWESLVALSLARLPVAAQPKEAAVQSGAGDYLLGIKRLRRLYCNVGIGFHLQALPDGRIGGAHADTRDSLLELSPVERGVVSIFGVASRFFVAMSSKGKLYGSPFFTDECTFKEILLPNNYNAYESYKYPGMFIALSKNGKTKKGNRVSPTMKVTHFLPRL
notes: FGF4; Denatured by SDS-PAGE and held on PVDF in the overlay; native analyte in SPR; also called recombinant FGF4; fibroblast growth factor 4; source: recombinant, provided by Marta Minkiewicz and Martyna Sochacka from Protein Engineering Group

One assay addresses T1, extracellular domain (ECD) of FGFR1 …. Put plainly: peptide or protein array; PepSpot: 15-residue peptides spanning FGF4 covalently bound to a cellulose membrane; blocked with 3% BSA in TBS-T; probed with HiLyte488-labelled FGFR1-Fc or Fc domain (0.1 µg/ml in blocking buffer) overnight at 4°C. The conditions noted are these: both partners purified.
As for B1, the binding result was “binds”.
For B2, the binding result is recorded as “binds”.
Regarding B3, the binding result was “binds”.
As to B4, the binding result is “binds”.
For B5, the binding result was “binds”.

The target is the same in another assay. Put plainly: affinity purification with mass spectrometry; chymotryptic peptides of FGF4 incubated 1 h at 4°C with ECD_FGFR1-Fc or, in parallel, Fc domain immobilized on rProtein A Fast Flow resin; washed (0.1 M NaCl, phosphate); eluted with 0.1 M sodium citrate pH 3.5; peptides identified by MS. The conditions noted are these: both partners purified.
As for B6, the binding result is reported as “binds”.
For B7, the binding result is given as “binds”.

Another assay shares this target. Kind of assay: SPR; Biacore 3000, 25°C, PBS with 0.05% Tween20, 0.1% BSA, 0.02% NaN3, pH 7.4; FGFR1 ECD-Fc amine-coupled on CM5 at 8800 RU; peptibodies 0.15-4.8 μM or FGF4 75-600 nM injected at 30 μl/min; steady-state affinity analysis for the peptibodies. The conditions noted are these: both partners purified.
B8 registered a Kd of 2990 nM.
Regarding B9, the Kd came out at 1090 nM.
B10: binding was put at a Kd of 65.7 nM.

As a reminder, the Kd is the constant that tells how readily two partners part at equilibrium. Higher therefore signals a looser complex.

For the origin of these results see article PMC8636100, “Peptibody Based on FGFR1-Binding Peptides From the FGF4 Sequence as a Cancer-Targeting Agent” (Frontiers in Pharmacology, 2021).
